For one substance, Kd results are on record in publication PMC8169611.

As a reminder, the Kd is the equilibrium constant for the complex coming apart. Lower therefore signals tighter binding.

The target of the test is mouse proIGF2 (insulin-like growth factor 2 pro-hormone) (mouse). As to the kind of experiment: fluorescence polarisation. A general note: Polarisation of emitted light reports the rotation of a fluorescent probe.

Turning to “mouse proIGF2 (insulin-like growth factor 2 pro-hormone) (natural protein)”, the Kd is 2.98 µM.
